Data published in patent US20060222645A1 (LEXICON PHARMACEUTICALS, published 2006).
Changes are numbered by the printed parent chain. Values belong to the binder of their own block, whether it stands above or below them.

Assays:
bovine LPL = biological target: T1, bovine LPL (bovine, UniProt P11151 29-478); assay: cell-based or functional assay
T1 sequence (looked up): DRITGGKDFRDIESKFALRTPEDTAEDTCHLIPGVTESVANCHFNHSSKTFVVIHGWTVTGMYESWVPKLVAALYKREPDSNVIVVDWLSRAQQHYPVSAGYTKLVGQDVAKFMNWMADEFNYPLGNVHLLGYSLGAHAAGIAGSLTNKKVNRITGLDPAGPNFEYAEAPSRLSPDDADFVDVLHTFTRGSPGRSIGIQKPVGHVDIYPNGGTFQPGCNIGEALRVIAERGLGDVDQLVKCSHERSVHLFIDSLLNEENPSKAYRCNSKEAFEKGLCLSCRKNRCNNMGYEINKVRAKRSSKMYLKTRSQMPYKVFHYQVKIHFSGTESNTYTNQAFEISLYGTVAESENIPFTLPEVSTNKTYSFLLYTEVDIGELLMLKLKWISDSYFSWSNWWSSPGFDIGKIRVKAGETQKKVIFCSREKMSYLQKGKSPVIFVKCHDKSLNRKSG

His-SUMO-gs1 = biological target: T2, His-SUMO-gs1 (mouse, UniProt Q6TMA8 24-73 (rat entry)); assay: Western blot of in vitro translated fragments
T2 construct: Translated in vitro (RTS E. coli); also called gs-1 fragment of mANGPTL4
T2 chain: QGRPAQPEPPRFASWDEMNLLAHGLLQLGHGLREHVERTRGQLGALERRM
Experimental: (§1) The in vitro translated protein fragments were separated on four SDS-PAGE gels, along with N-mANGPTL4, and transferred to four nitrocellulose blots. The blots were then blocked for 1 to 2 hours with TBS containing 5% nonfat dried milk (TBS-NFDM). After blocking, the blots were rinsed with TBS containing 0.5% Tween-20 (TBS-Tween) four times for five minutes each rinse. The blots were then incubated in TBS-NFDM containing tester antibody (14D12, 15F2, 90B4, or anti-His) overnight at 4° C. The blots were rinsed with TBS-Tween four times for five minutes each rinse and then incubated in TBS-NFDM containing a 1:6000 dilution of HRP-coupled goat anti-mouse antibody (Southern Biotechnology Associates) for 1 hour. The blots were rinsed with TBS-Tween four times for five minutes each rinse and then developed using SuperSignal West Pico Chemiluminescent Substrate (Pierce Biotechnology) as directed by the manufacturer. Alternatively, blots can be developed using the Western Breeze™ Immunodetection Kit (Invitrogen).
(§2) Antibody 14D12 bound only to N-mANGPTL4 in that experiment. […] That result may be due to the fact that 14D12 is a weaker binder than 15F2 and 90B4. See, e.g., Example S and FIG. 33. Antibody 15F2 bound His-SUMO-gs1. […] Antibody 90B4 bound to His-SUMO-gs2 and His-SUMO-gs4.

N-hANGPTL4 = biological target: T3, N-hANGPTL4 (human); assay: ELISA, coated antigen 0.25 ug/ml, antibody 0 to 10 ug/ml
T3 construct: E. coli construct
T3 chain: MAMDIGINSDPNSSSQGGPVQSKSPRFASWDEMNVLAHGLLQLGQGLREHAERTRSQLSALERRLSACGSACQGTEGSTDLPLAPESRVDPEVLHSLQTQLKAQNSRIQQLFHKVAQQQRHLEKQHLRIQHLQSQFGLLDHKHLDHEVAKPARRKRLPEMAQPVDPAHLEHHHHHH
Experimental: (§3) Antibodies were screened for binding to mouse ANGPTL4 using ELISA. Ninety-six well Nunc Maxi-Sorp ImmunoPlates™ (Nunc #446612, Roskilde, Denmark) were coated by adding 50 μl per well of a 2.5 μg/ml solution of ANGPTL4 in coating buffer (BupH™ Carbonate-Bicarbonate Buffer, Pierce #28382, Rockford, Ill.) overnight at 4° C. Coating buffer was removed and the plate was blocked by adding 250 μl per well of blocking buffer (1% Blocker™ BSA, Pierce #37525, in PBS) for two hours at room temperature. 50 μl of hybridoma supernatant (undiluted or diluted in blocking buffer) or isolated anti-ANGPTL4 antibody (undiluted or diluted in blocking buffer) were added to the wells and incubated for at least one hour at room temperature. Wells were washed four times with PBS/Tween 20. 100 μl of diluted (1:5,000 to 1:10,000) HRP-conjugated goat anti-mouse IgG (Pierce #31446) were added to the wells and incubated for one hour at 37° C. Wells were washed six times with PBS/Tween 20. Anti-ANGPTL4 antibody was detected by adding 50 μl of TMB (tetramethyl benzidine) solution (ImmunoPure® TMB Substrate Kit, Pierce #34021) to the wells for 5 to 10 minutes. Plates were read spectrophotometrically at 450 nm using a microplate reader (Molecular Devices, Sunnyvale, Calif.).
(§4) The binding affinity of antibodies 90B4, 15F2, and 14D12 were determined for each of N-mANGPTL4 and N-hANGPTL4 by ELISA. N-hANGPTL4 was expressed and purified from bacteria as described above for N-mANGPTL4 in Example Q. A polynucleotide sequence encoding amino acids 24 to 175 of human ANGPTL4 was cloned into expression vector pET22b(+), which encodes an N-terminal pelB leader sequence and a C-terminal His tag. Following translation of the protein and removal of all but 11 amino acids of the pelB sequence, N-hANGPTL4 has the sequence shown in SEQ ID NO: 11. That sequence contains 11 amino acids from the pelB sequence, followed by amino acids 24 to 175 of human ANGPTL4 (underlined in Table 6), followed by a 2 amino acid linker and the His tag. ELISAs were performed as discussed above in Example K, except the plates were coated with 50 μl of 0.25 μg/ml of protein (N-mANGPTL4 or N-hANGPTL4) per well. Binding was measured at 0 μg/ml, 0.08 μg/ml, 0.4 μg/ml, 2 μg/ml, and 10 μg/ml antibody.

N-mANGPTL4 = biological target: T4, N-mANGPTL4 (mouse); assay: as above
T4 construct: E. coli construct; also called portion of the amino terminal domain of mouse ANGPTL4
T4 chain: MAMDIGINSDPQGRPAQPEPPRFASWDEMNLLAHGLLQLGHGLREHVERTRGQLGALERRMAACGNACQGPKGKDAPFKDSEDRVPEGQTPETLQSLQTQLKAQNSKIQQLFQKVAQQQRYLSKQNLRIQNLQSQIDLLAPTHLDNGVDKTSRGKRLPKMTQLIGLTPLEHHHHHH
Experimental: as §3, §4

His-SUMO-gs3 = biological target: T5, His-SUMO-gs3 (mouse, UniProt Q9Z1P8 74-123); assay: Western blot of in vitro translated fragments
T5 construct: Translated in vitro (RTS E. coli); also called gs-3 fragment of mANGPTL4
T5 chain: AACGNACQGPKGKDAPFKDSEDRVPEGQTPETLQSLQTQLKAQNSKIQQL
Experimental: as §1, §2

His-SUMO-gs5 = biological target: T6, His-SUMO-gs5 (mouse, UniProt Q9Z1P8 124-180); assay: Western blot of in vitro translated fragments
T6 construct: Translated in vitro (RTS E. coli); also called gs5 fragment of mANGPTL4
T6 sequence: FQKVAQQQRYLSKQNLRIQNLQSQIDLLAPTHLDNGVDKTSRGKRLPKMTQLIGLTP
Experimental: as §1, §2

His-SUMO-gs4 = biological target: T7, His-SUMO-gs4 (mouse, UniProt Q9Z1P8 99-151); assay: Western blot of in vitro translated fragments
T7 construct: Translated in vitro (RTS E. coli); also called gs4 fragment of mANGPTL4
T7 sequence: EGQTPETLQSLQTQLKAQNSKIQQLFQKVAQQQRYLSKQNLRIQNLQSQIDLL
Experimental: as §1, §2

His-SUMO-gs2 = biological target: T8, His-SUMO-gs2 (mouse, UniProt Q9Z1P8 49-98); assay: Western blot of in vitro translated fragments
T8 construct: Translated in vitro (RTS E. coli); also called gs-2 fragment of mANGPTL4
T8 chain: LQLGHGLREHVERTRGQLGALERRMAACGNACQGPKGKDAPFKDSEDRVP
Experimental: as §1, §2

[1] = biological target: T9, full-length human ANGPTL4 (human, UniProt Q9BY76 26-406); assay: hybridoma screening ELISA, coated antigen 0.25 ug/ml
T9 construct: also called hANGPTL4
T9 sequence: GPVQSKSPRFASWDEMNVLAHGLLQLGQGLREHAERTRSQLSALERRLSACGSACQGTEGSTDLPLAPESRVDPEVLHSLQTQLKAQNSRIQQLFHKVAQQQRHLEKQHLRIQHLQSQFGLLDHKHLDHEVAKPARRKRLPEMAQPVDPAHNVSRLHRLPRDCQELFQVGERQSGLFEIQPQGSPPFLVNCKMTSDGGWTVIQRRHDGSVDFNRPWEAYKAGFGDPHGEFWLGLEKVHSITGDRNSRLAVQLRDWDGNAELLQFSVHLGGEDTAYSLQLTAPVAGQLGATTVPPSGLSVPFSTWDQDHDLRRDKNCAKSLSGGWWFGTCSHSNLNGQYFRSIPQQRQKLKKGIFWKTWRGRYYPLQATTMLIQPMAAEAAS

- IC50 (concentration required for 50% inhibition) of LPL activity, release of 3H-oleic acid (bovine LPL): ~25 nM
B1: full-length mouse ANGPTL4 (ligand)
chain: QGRPAQPEPPRFASWDEMNLLAHGLLQLGHGLREHVERTRGQLGALERRMAACGNACQGPKGKDAPFKDSEDRVPEGQTPETLQSLQTQLKAQNSKIQQLFQKVAQQQRYLSKQNLRIQNLQSQIDLLAPTHLDNGVDKTSRGKKLSKMTQLIGLTSNATHLHRPARDCQELFQEGERHSGLFQIQPLGSPPFLVNCEMTSDGGWTVIQRRLNGSVDFNQSWEAYKDGFGDPQGEFWLGLEKMHSITGDRGSQLAVQLQDWDGNAKLLQFPIHLGGEDTAYSLQLTEPTANELGATNVSPNGLSLPFSTWDQDHDLRGDLNCAKSLSGGWWFGTCSHSNLNGQYFHSIPRQRQERKKGIFWKTWKGRYYPLQATTLLIQPMEATAAS

- binding result (His-SUMO-gs1): binds
- binding result (N-hANGPTL4): binds
- binding result (N-mANGPTL4): binds
B2: monoclonal antibody 15F2 (antibody, V domains shown)
VH: EVKLVESGGGLVKPGGSLKLSCAASGFAFSRYDMSWVRQTPEKRLEWVATISTDGSYTYYPDSVKGRFTISRDNARNTLYLQMGSLRSEDTALYFCVRHEQSTIVPHYPLDYWGQGTSVTVSS
VL: EIQMTQSPSSMSASLGDRITITCQATQDIVKNLNWYQQKPGKPPSFLIHYATELAEGVPSRFSGSGSGSDYSLTISNLESEDFADYYCLQSYDFPYTFGGGTKLEINR

- binding result (His-SUMO-gs3): no binding
- binding result (His-SUMO-gs1): no binding
- binding result (His-SUMO-gs5): no binding
- binding result (His-SUMO-gs4): no binding
- binding result (His-SUMO-gs2): no binding
- binding result (N-hANGPTL4): binds
- binding result (N-mANGPTL4): binds
B3: monoclonal antibody 14D12 (antibody, V domains shown)
VH: B2 VH with D54G, I104V
VL: DIVMTQSPATLSVTPGDRVSLSCRASQSIGDYLHWYQQKSHESPRLLIKYASQSISGIPSRFSGSGSGSDFTLSIDSVEPEDVGVYYCQNGHSFPFTFGSGTKLEIKR

- binding result [1]: binds
- binding result (His-SUMO-gs4): binds
- binding result (His-SUMO-gs2): binds
- binding result (N-hANGPTL4): binds
- binding result (N-mANGPTL4): binds
B4: monoclonal antibody 90B4 (antibody, V domains shown)
VH: EVQLQQSGPELMKPGASVKMSCRTSGYTFTDYSIHWVKQSHGKRLEWIGYINPYNGDTYCDQNFKGKATLTFNKASSTAYMEIPRLTSDDSAVYYCTRWKTIQAPFAYWGQGTLVTVSA
VL: EIQMTQSPSSMSASLGDRITITCQATQDIVKNLNWYQQKPGKPPSFLIHYATELAEGVPSRFSGSGSGSDYSLTISNLESEDFADYYCLQSYDFPYTFGGGTKLEIN
